Binding data for 3 sequences are collected here from article PMC6957213.

The subject of data set [1] is T1, GdhR (Neisseria gonorrhoeae FA19), ORF:8165ddaf.
T1 sequence: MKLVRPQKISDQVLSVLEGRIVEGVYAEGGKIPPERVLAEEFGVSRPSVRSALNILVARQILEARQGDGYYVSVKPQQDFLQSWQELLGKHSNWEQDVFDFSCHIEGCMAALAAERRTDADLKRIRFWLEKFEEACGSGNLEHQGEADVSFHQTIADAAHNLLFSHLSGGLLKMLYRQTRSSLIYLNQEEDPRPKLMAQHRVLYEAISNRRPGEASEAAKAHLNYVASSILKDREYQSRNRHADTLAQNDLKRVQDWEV
Kind of data set: competition. The note with it: EMSA: 12 fmol DIG-DNA in 20 uL, 20 mM Hepes pH 7.6, 1 mM EDTA, 10 mM (NH4)2SO4, 1 mM DTT, 0.2% Tween-20, 30 mM KCl, 1.25 ng/uL calf thymus DNA, 25 min, 30 C. On the technique in general: In EMSA bound probe runs differently from free probe, usually more slowly.

Data set [2] has the same test system. Kind of data set: EMSA. The settings on record: EMSA: 12 fmol DIG-DNA in 20 uL, 20 mM Hepes pH 7.6, 1 mM EDTA, 10 mM (NH4)2SO4, 1 mM DTT, 0.2% Tween-20, 30 mM KCl, 1.25 ng/uL calf thymus DNA, 25 min, 30 C.

For the sequence “CGTAGGGTGCGAGCGTTAATCGGAATTACTGGGCGTAAAGCGGGCGCAGACGGTTACTTAAGCAGGATGTGAAATCCCCGGGCTCAACCCGGGAACTGCGTTCTGAACTGGGTGACTCGAGTGTGTCAGAGGGAGGTGGAATTCCACGTGTAGCAGTGAAATGCGTAGAGATGTGGAGGAATACCGATGG (double strand) [16S rRNA gene fragment]”, the binding result in data set [1] is recorded as “no binding”. For the sequence “GTGGACGGGGACGGCGCGGTATTCGTGCCGCCGGAAGAATGCTGAAAATGCCGTCTGAAGCCTTTCGGGCGGCTTTTTCTACACGCCCCTTTCCCACACTCCCTCCGCCGCATCATCACCATCCTTAACCCGCATTAATAGCCATTATCGATAAAATGCTTGACCGATTACATAAGATTACGTAAAGTGTGCAAACGCATATCTTTTAACCAAAATATCGGGTGTGCGGGATTTGAACGTCTTTCCAAACCTCGACGCGCCTTATGATGC (double strand) [lctPΔFadR EMSA probe]”, the binding entry in data set [2] is on record as “binds more weakly”. On to “GTGGACGGGGACGGCGCGGTATTCGTGCCGCCGGAAGAATGCTGAAAATGCCGTCTGAAGCCTTTCGGGCGGCTTTTTCTACACGCCCCTTTCCCACACTCCCTCCGCCGCATCATCACCATCCTTAACCCGCATTAATAGCCATTATCGATAAAATGCTTGACCGATTACATAAGATTACGTAAAGTGTGCAAACGCATAATAATTGGTCTTACCAATTTATCTTTTAACCAAAATATCGGGTGTGCGGGATTTGAACGTCTTTCCAAACCTCGACGCGCCTTATGATGC (double strand) [lctP promoter, unlabeled competitor]”, for which the binding entry in data set [1] is recorded as “binds”.
